The text below walks through data of PMC5036196, “Structural and histone binding ability characterization of the ARB2 domain of a histone deacetylase Hda1 from Saccharomyces cerevisiae” (Scientific Reports, 2016).

Data set [1] concerns the molecule itself. The experiment in a line: SEC; Superdex 200 10/300 GL, 0.5 ml/min, 25 mM Tris-HCl pH 7.5, 200 mM NaCl; apparent molecular mass against standard proteins.
In data set [2] the target is yeast histone H3-H4 tetramer (Saccharomyces cerevisiae, UniProt P61830 1-136; P02309 1-103). The experiment in a line: ITC; ITC200 at 20 °C; 0.5 mM ARB2 or mutant in the injector, 0.2 mM H2A/B or 0.25 mM H3/4 in the sample cell; 25 mM Tris-HCl pH 7.5, 200 mM NaCl; single-site fitting model. Conditions: both partners purified.

B1: ARB2 domain of Hda1 (Hda1^457–698) (domain or fragment, Saccharomyces cerevisiae, UniProt P53973 457-698, looked up)
chain: LQKAIRQQQQHYLSDEFNFVTLPLVSMDLPDNTVLCTPNISESNTIIIVVHDTSDIWAKRNVISGTIDLSSSVIIDNSLDFIKWGLDRKYGIIDVNIPLTLFEPDNYSGMITSQEVLIYLWDNYIKYFPSVAKIAFIGIGDSYSGIVHLLGHRDTRAVTKTVINFLGDKQLKPLVPLVDETLSEWYFKNSLIFSNNSHQCWKENESRKPRKKFGRVLRCDTDGLNNIIEERFEEATDFILDS
notes: Hda1 (histone deacetylase), S. cerevisiae, C-terminal ARB2 domain, residues 457-698; Homodimer in the crystal (symmetry-related molecules) and by size-exclusion chromatography; A selenomethionine derivative was used for phasing only; also called Native-Hda1^457–698; wild-type ARB2 domain; source: E. coli BL21 (DE3), purified (Ni-NTA, HiTrap Q FF, Superdex 200)
Take B1: in data set [1], the “stoichiometry N” value amounted to 2. In data set [2], binding was characterised by a dissociation constant (Kd) of 3.24 ± 0.49 µM, the dH is -33.9 kcal/mol and the “stoichiometry N” value was 1.52.

B2: ARB2-M2 (residues Tyr468 and Glu472 mutated to Ala) (domain or fragment, Saccharomyces cerevisiae, UniProt P53973 457-698, looked up)
chain: LQKAIRQQQQHALSDAFNFVTLPLVSMDLPDNTVLCTPNISESNTIIIVVHDTSDIWAKRNVISGTIDLSSSVIIDNSLDFIKWGLDRKYGIIDVNIPLTLFEPDNYSGMITSQEVLIYLWDNYIKYFPSVAKIAFIGIGDSYSGIVHLLGHRDTRAVTKTVINFLGDKQLKPLVPLVDETLSEWYFKNSLIFSNNSHQCWKENESRKPRKKFGRVLRCDTDGLNNIIEERFEEATDFILDS
notes: Hda1, S. cerevisiae, ARB2 domain, residues 457-698, with two substitutions around the groove; source: E. coli BL21 (DE3), purified (Ni-NTA, HiTrap Q FF, Superdex 200)
As to B2, in data set [2], the Kd amounted to 6.93 ± 1.24 µM, the dH was -24.1 kcal/mol and the “stoichiometry N” value worked out at 1.1.

B3: ARB2-M1 (residues Gln463, His467 and Asp471 mutated to Ala) (domain or fragment, Saccharomyces cerevisiae, UniProt P53973 457-698, looked up)
chain: LQKAIRAQQQAYLSAEFNFVTLPLVSMDLPDNTVLCTPNISESNTIIIVVHDTSDIWAKRNVISGTIDLSSSVIIDNSLDFIKWGLDRKYGIIDVNIPLTLFEPDNYSGMITSQEVLIYLWDNYIKYFPSVAKIAFIGIGDSYSGIVHLLGHRDTRAVTKTVINFLGDKQLKPLVPLVDETLSEWYFKNSLIFSNNSHQCWKENESRKPRKKFGRVLRCDTDGLNNIIEERFEEATDFILDS
notes: Hda1, S. cerevisiae, ARB2 domain, residues 457-698, with three substitutions around the groove; source: E. coli BL21 (DE3), purified (Ni-NTA, HiTrap Q FF, Superdex 200)
For the molecule B3, in data set [2], the dissociation constant Kd was 9.84 ± 1.48 µM, the dH is -7.63 kcal/mol and the “stoichiometry N” value stood at 0.78.

B4: ARB2-M3 (residues Val481, Ser482, Met483 and Asp484 mutated to Ala) (domain or fragment, Saccharomyces cerevisiae, UniProt P53973 457-698, looked up)
chain: LQKAIRQQQQHYLSDEFNFVTLPLAAAALPDNTVLCTPNISESNTIIIVVHDTSDIWAKRNVISGTIDLSSSVIIDNSLDFIKWGLDRKYGIIDVNIPLTLFEPDNYSGMITSQEVLIYLWDNYIKYFPSVAKIAFIGIGDSYSGIVHLLGHRDTRAVTKTVINFLGDKQLKPLVPLVDETLSEWYFKNSLIFSNNSHQCWKENESRKPRKKFGRVLRCDTDGLNNIIEERFEEATDFILDS
notes: Hda1, S. cerevisiae, ARB2 domain, residues 457-698, with four substitutions around the groove; source: E. coli BL21 (DE3), purified (Ni-NTA, HiTrap Q FF, Superdex 200)
For the molecule B4, in data set [2], the Kd is 8.19 ± 0.72 µM, the dH is -20.2 kcal/mol and the “stoichiometry N” value is 0.9.
